Test [1] concerns the target T1, cynomolgus monkey (cyno) complement protein C5 (cynomolgus monkey, UniProt A0A2K5U1T1 19-1676).
T1 construct: also called cC5; cyno C5
The test is described as follows: SPR (Biacore).

The target of test [2] is T2, human complement protein C5 (human, UniProt P01031 19-1676).
T2 construct: Native C5 is a two-chain protein made from one precursor; also called hC5; human C5
In words: SPR (Biacore).

Test [3] concerns the target T3, human serum albumin (human, UniProt P02768 25-609).
T3 construct: also called HSA; human albumin
In words: BLI (Octet HTX), VHH-His on Penta-His sensors, 100 nM albumin.
Description: VHH sequences were first analyzed by SDS-PAGE and Coomassie staining to determine approximate concentration relative to a known standard. Supernatant concentrations were then normalized and subjected to biolayer interferometry on an Octet HTX (Pall/ForteBio). Penta-His sensors were exposed to kinetics buffer for 60 seconds to establish baseline measurements. The sensors were then loaded with VHH-His containing supernatants for 300 seconds before a second baseline was established in kinetics buffer over 120 seconds. Tips were then incubated with 100 nM HSA or CSA in kinetics buffer for 600 seconds and dissociation measured over an additional 600 seconds.

Test [4] deals with T2, human complement protein C5. In words: SPR (Biacore), pH 7.4.
Test [5] deals with T1, cynomolgus monkey (cyno) complement …. In words: SPR (Biacore), pH 6.0.
For test [6], the target named is T2, human complement protein C5. In words: SPR (Biacore), pH 6.0.
Test [7] addresses T3, human serum albumin. The test is described as follows: SPR (Biacore 3000), biotinylated albumin on CAP chip, pH 6.0.
Protocol: (§1) Biotinylated albumin was captured onto a CAP chip saturated with Biotin CAPture reagent containing deoxyribooligonucleotides (obtained from GE Healthcare). Concentrations of purified VHH domains were injected for 5 minutes at a flowrate of 50 μL/min. Three concentrations were assessed per VHH domain. Bound analyte was allowed to dissociate for 600 seconds. The chip surface was regenerated after each concentration by injecting 6 M guanidine HCl/0.25 M NaOH for 2 minutes at 10 μL/min. Kinetics were determined at pH 7.4 and pH 6.0 in HBS-EP buffer using a 1:1 Langmuir model (local Rₘₐₓ and constant RI) and double reference subtraction (subtraction of a buffer concentration cycle from the sample concentration cycle and subtraction of a parallel reference flow cell).
For test [8], the target named is T4, Cynomolgus monkey serum albumin (cynomolgus monkey, UniProt A2V9Z4 25-608).
T4 construct: also called CSA; cynomolgus albumin
The test is described as above.
Protocol: as §1

Test [9] has as its target T3, human serum albumin. In words: SPR (Biacore 3000), biotinylated albumin on CAP chip, pH 7.4.
Protocol: as §1
In test [10] the target is T4, Cynomolgus monkey serum albumin. The test is described as above.
Protocol: as §1

B1: LCP0136 (VHH)
VHH: EVQLVESGGGLVQPGESLRLSCAISGFAFTDVGMSWVRQAPGKGLEWVSSISSGSSITTYSDSVKGRFTISRDNARNTLFLQMNSLKPEDTAVYYCGRYYCTGLGCHPRRDSALWGQGTQVTVSS
notes: llama anti-C5 VHH, tested as VHH-His fusion; not shown: His-tag
Turning to B1, in test [1], the Kd was determined as 0.318 nM, the koff is 0.000251 s⁻¹ and the kon amounted to 789000 M⁻¹ s⁻¹. In test [2], this molecule gave a Kd of 1.81 nM, a koff of 0.000882 s⁻¹ and a kon of 486000 M⁻¹ s⁻¹.

B2: LCP0095 (VHH)
VHH: EVQLVESGGGLVQAGGSLRLSCTASGRTISTTVMAWFRQAPGKEREFVAADHWGDAGTVYADSVKGRFTISRDNAKNTVYLQMNYLKPEDTSVYYCAARPPTYVGTSRDSRAYDYWGQGTQVTVSS
notes: as for B1
Take B2: in test [1], binding was characterised by a dissociation constant (Kd) of 3.69 nM, the koff worked out at 0.00168 s⁻¹ and the kon came to 456000 M⁻¹ s⁻¹. In [2], this molecule displayed a Kd of 2.5 nM, a koff of 0.000714 s⁻¹ and a kon of 286000 M⁻¹ s⁻¹.

B3: LCP0123 (VHH)
VHH: EVQLVESGGGLVQAGGSLTLSCAMSGGTRPFEDYVMAWFRQATGKEREFVATITWMGETTYYKDSVNGRFAISRDNAENTVALQMNSLEPEDTAVYFCAAHSRSSFSTSGGRYNPRPTEYDYWGQGTQVTVSS
notes: as for B1
As for B3, in test [1], the Kd was 3.8 nM, the koff came out at 0.000381 s⁻¹ and the kon was 100000 M⁻¹ s⁻¹. In test [2], the Kd was found to be 1.99 nM, the koff came to 0.000216 s⁻¹ and the kon is 108000 M⁻¹ s⁻¹.

B4: LCP0143 (VHH)
VHH: EVQLVESGGGLVQAGGSLRLSCAAPEMGATINVMAWYRQAPGKQRELVARLPLDNNIDYGDFAKGRFTISRDITRNTVYLQMNNLKPDDTAVYYCNVLLSRQINGAYVHWGQGTQVTVSS
notes: as for B1
For B4, in [1], the Kd stood at 0.167 nM, the koff was 0.000124 s⁻¹ and the kon was 741000 M⁻¹ s⁻¹. In test [2], binding was characterised by a dissociation constant (Kd) of 0.082 nM, the koff is 5.66e-05 s⁻¹ and the on-rate (kon) is 691000 M⁻¹ s⁻¹.

B5: HAS020 (VHH)
VHH: QVQLVESGGGLVQAGGSLRLSCAASGRTFGSDAAGWFRQASGKEREFVASISWSGGYTYYADSVKGRFTISSDNVKNTVYLQMNSLTPEDTAVYFCATGNRYSDYRISLVTPSQYEYWGQGTLVTVSH
notes: anti-albumin VHH-His
For B5, the binding result with human serum albumin [3] is given as “binds”.

B6: HAS091 (VHH)
VHH: QVQLVESGGGLVQAGGSLRLSCAASGRTFGSDAAGWFRQASGKEREFVASISWSGGYTYYADSGTGRFTISSDNVKNTVYLQMNSLTPEDTAVYFCATGNRDSDYRISLVTPSQYEYWGQGTQVTVSH
notes: anti-albumin VHH-His
On to B6, for which the binding result in the test with human serum albumin [3] is reported as “binds”.

B7: HAS081 (VHH)
VHH: QVQLVESGGGLVQAGGSLRLSCAASGRTFSSDAAGWFRQASGKEREFVAAISWSGNYTYSADSVKGRFTISSDNVKNTVYLQMNSLKPEDTAVYLCAAGNRYSDYRISLVTPSQYEYWGQGTQVTVSH
notes: anti-albumin VHH-His
For B7, the binding result with human serum albumin [3] was “binds”.

B8: HAS096 (VHH)
VHH: QVQLVESGGGLVQAGGSLRLSCAASGRTFGSDAAGWFRQASGKEREFVASISWSGGYTYYADSVKGRFTSSSDNVKNTVYLQMNSLTPEDTAVYFCATVNRYSDYRISLVTPSQYEYWGQGTQVTVSH
notes: anti-albumin VHH-His
With B8, in the test with human serum albumin [3], the binding result is “binds”.

B9: HAS093 (VHH)
VHH: QVQLVESGGGLVQAGGSLRLSCAASGRTFGSDAAGWFRQASGKEREFVASISWSGGYTYYADSGKGRFTISSDNVKNTVYLQMNSLTPEDTAVYFCATGNRYSDYRISLVTPSQYDYWGQGTQVTVSH
notes: anti-albumin VHH-His
B9: the binding result with human serum albumin [3] is listed as “binds”.

B10: LCP0296 (VHH)
VHH: EVQLVESGGGVVQAGDSLTLTCTAPVGTISDYGMGWFRQAPGKEREFVASISWGGMWTDYADSVKGRFTISRDNDKNAVYLRMNSLNAEDTAVYYCGRGRMYRGIGNSLAQPKSYGYWGQGTQVTVSS
notes: as for B1
Regarding B10, in test [1], the affinity, expressed as Kd, was 1.55 nM; the koff amounted to 0.000106 s⁻¹; the kon was determined as 68400 M⁻¹ s⁻¹. In test [2], this molecule registered a Kd of 0.417 nM, a koff of 3.9e-05 s⁻¹ and a kon of 93400 M⁻¹ s⁻¹.

B11: HAS044 (VHH)
VHH: QVQLVESGGGLVQAGGSLRLSCAASGRTFSSYAIGWFRQAPGKAREFVARVSTIAGDTDYADSVKGRFTISRDNAKNTVYLQMNSLKPEDTAVYYCAADSYNVRLVTGEADYWGEGTQVTVSS
notes: anti-albumin VHH-His
For the molecule B11, the binding result in the test with human serum albumin [3] is on record as “binds”.

B12: HAS079 (VHH)
VHH: EVQLVESGGGLVQAGDSLRLSCAASGFTFSNYAIGWFRQAPGKAREFVARVSTIAGDTDYANAVKGRFTISRDNAKNTVYLQMNSLKPDDTAVYYCAAESYNVRLVTGEADYWGEGTQVTVSS
notes: anti-albumin VHH-His
For the molecule B12, the binding result with human serum albumin [3] is recorded as “binds”.

B13: HAS077 (VHH)
VHH: QVQLVESGGGLVQAGGSLRLSCAASGRTFSSYAIGWFRQAPGKAREFVARVSTIAGDTDYADSVKGRFTISRDNAKNTVYLQMNSLKPEDTAVYYCAADSYNVRLGTGEADYWGEGTQVTVSS
notes: anti-albumin VHH-His
As to B13, the binding result with human serum albumin [3] is listed as “binds”.

B14: HAS080 (VHH)
VHH: QVRLAESGGGRVQAGESLRLSCVASGRTFSNDAAGWFREASGKEREFVASISWSGNYTYYADSVKGRFTISEDNVKNTVYLQMTSLKPEDTAVYYCAAGNRYSDYRISLVTPRLYEYWGQGTQVTVSH
notes: anti-albumin VHH-His
Turning to B14, the binding result in the test with human serum albumin [3] is “binds”.

B15: CRL0499 (bispecific antibody)
chain: EVQLLESGGGLVQPGGSLRLSCAASGFTFRSFGMSWVRQAPGKGPEWVSSISGSGSDTLYADSVKGRFTISRDNSKNTLYLQMNSLRPEDTAVYYCTIGGSLSRSSQGTLVTVSSGGGGSGGGGSGGGGSEVQLVESGGGLVQPGGSLRLSCAASGRAHSDYAMAWFRQAPGQEREFVAGIGWSGGDTLYADSVRGRFTNSRDNSKNTLYLQMNSLRAEDTAVYYCAARQGQYIYSSMRSDSYDYWGQGTLVTVSS
notes: anti-albumin VHH / (G4S)3 / anti-C5 VHH fusion, purified by Protein A; also called CRL0499 (HSA/C5)
Turning to B15, in test [4], the Kd amounted to 0.15 nM, the koff was 0.000332 s⁻¹ and the kon came out at 2.22e+06 M⁻¹ s⁻¹. In [5], the Kd was 2.02 nM, the koff was 0.00388 s⁻¹ and the kon is 1.92e+06 M⁻¹ s⁻¹. Also, in test [6], binding was characterised by a dissociation constant (Kd) of 0.448 nM, the koff was 0.00112 s⁻¹ and the kon turned out to be 2.51e+06 M⁻¹ s⁻¹.

B16: HAS040 (VHH)
VHH: QVQLNESGGGMVQAGGSLRLSCAASGRTVSNYAAGWFRQAPGKEREFVAAINWNKTTTYADSVKGRFIISREYAKNTVALQMNSLKPEDTAVYYCAAVFRIVAPKTQYEYDYWGQGTQVTVSS
notes: anti-albumin VHH-His; also called HAS40
As for B16, the Kd was found to be 0.466 nM with human serum albumin [7], 0.764 nM in [8], 0.341 nM in the test with human serum albumin [9] and 0.539 nM in test [10]. Also, the koff amounted to 0.000208 s⁻¹ with human serum albumin [7], 0.000281 s⁻¹ in test [8], 0.00044 s⁻¹ in the test with human serum albumin [9] and 0.000562 s⁻¹ in test [10]. The kon came to 445000 M⁻¹ s⁻¹ in the test with human serum albumin [7], 368000 M⁻¹ s⁻¹ in [8], 1.29e+06 M⁻¹ s⁻¹ with human serum albumin [9] and 1.04e+06 M⁻¹ s⁻¹ in test [10].

B17: LCP0146 (VHH)
VHH: EVQLVESGGGLVQAGGSLRLSCAASGRAFSDYAMAWFRQAPGKEREFVAGIGWSGGDTLYADSVRGRFTNSKDNAKNRMSLQMNSLKPEDTAVYYCAARQGQYIYSSMRSDSYDYWGQGTQVTVSS
notes: as for B1
Turning to B17, in test [1], binding was put at a Kd of 0.0922 nM, the koff is 0.000244 s⁻¹ and the kon was 2.64e+06 M⁻¹ s⁻¹. Besides, in test [2], the Kd amounted to 0.0435 nM, the koff worked out at 9.75e-05 s⁻¹ and the kon was found to be 2.24e+06 M⁻¹ s⁻¹.

B18: LCP0115 (VHH)
VHH: EVQLVESGGGLVQAGGSLRLSCAASGRTFSGILSPYAVGWFRQAPGKGREFVSTITSGGSAIYTDSVKGRFTLSRDNAKDTVYLQMNSLKPEDTAVYYCAVRTRRYGSNLGEVPQENEYGYWGQGTQVTVSS
notes: as for B1
In the case of B18, in [1], binding was put at a Kd of 0.107 nM, the koff was 1.02e-05 s⁻¹ and the kon worked out at 95300 M⁻¹ s⁻¹. In test [2], this molecule returned a Kd of 0.309 nM, a koff of 3.48e-05 s⁻¹ and a kon of 113000 M⁻¹ s⁻¹.

B19: LCP0302 (VHH)
VHH: EVQLVESGGGLVQAGGSLRLSCAASGRTFSGILSAYAVGWFRQAPGKEREFVSTITSGGSTLSADSVKGRFTLSRDNAKDTVYLQMNSLKPEDTAVYYCAVRTWPYGSNRGEVPTENEYGHWGQGTQVTVSS
notes: as for B1
Turning to B19, in [1], binding was put at a Kd of 0.232 nM, the koff came out at 2.38e-05 s⁻¹ and the kon is 103000 M⁻¹ s⁻¹. Further, in test [2], the Kd is 0.195 nM, the koff turned out to be 2.22e-05 s⁻¹ and the kon was found to be 114000 M⁻¹ s⁻¹.

B20: HAS038 (VHH)
VHH: QVQLVESGGGLVQPGGSLRLSCTGSGHSFSTYTVGWFRQAPGEERKFVASISWSGEVTLYGDSVKGRFTISRDNRKKTVYLQMHSLKPEDSAIYYCAAKRGGRPTDSSDDYFYWGQGTQVTVSS
notes: anti-albumin VHH-His
In the case of B20, the binding result with human serum albumin [3] is on record as “binds”.

For the origin of these results see patent US20250163138A1 (Alexion, published 2025).
